# Measurements published in the supplement of paper PMC9170038.
# Tested on: K4 kissing-loop RNA reporter
# Experiment: apparent KD of K4 kissing-loop reporter; higher = weaker reporter binding
# Conditions: Eterna round: R107
# Method: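 RNA-MaP round R107: designed RNA switches with theophylline, tryptophan, arginine or FMN aptamers are transcribed on-chip within common flanks. They are titrated with a labelled K4 kissing-loop RNA reporter in RNA-MaP buffer (100 mM Tris pH 7.5, 80 mM KCl, 4 mM MgCl2), without ligand or with the indicated ligand. Median apparent KD per design.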
# [1] = input ligand: theophylline 20 uM
# [2] = input ligand: tryptophan 2.4 mM
# 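Also: bound reporter read as fluorescence of individual clusters on recovered sequencing chips by microscopy, with normalized cluster intensities fitted with a binding model.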
Sequence,apparent KD of K4 kissing-loop reporter (input ligand: FMN 200 uM) [nM],apparent KD of K4 kissing-loop reporter (input ligand: arginine 13.2 mM) [nM],apparent KD of K4 kissing-loop reporter (input ligand: none) [nM],apparent KD of K4 kissing-loop reporter [1] [nM],apparent KD of K4 kissing-loop reporter [2] [nM]
AAGUGAUGUUGUAGUGAUGUUGUGAUGUUGCAGGAUAUAUAGUGAUGUAGAAGGGUAUGUACUUAUUUGUUUUUUGAGUUAUGUU [zzazzrmullin],65.9,28.5,53.1,41,53.8
AUUUAGACGAGUGAUGUUCGUGUUUUUUCAGAGGAUAUGCGUAAUUGCAGAAGGCUGUAUUUAUAUAUGUUUUGUUUUUUUAAAA [JR_ExcFMNA_Sub008],80.4,92.1,75.4,93.6,69.3
AAAUAAAAGGCGGCCGCCACUGAACGCCUCCGCGUGGGUAUAUAGUGAUGUUAUAUGGCCGCCUUCAGGACCGGGCCAAAUAAAA [AstrosSSTryB#1],458,220,339,274,373
GCUAUGGUAGGAAGGAGCGCUUAAUUACUAAUAAGAGUGAUGUUCGAUAGUAGGUAUUUGUAGCAGGUAGGUCGCCUACUAUAGC [KL-Arg B24],264,174,444,230,215
UGGACCUGACUCGAUAAGAGUCAAGGAGAUACCAGCCACGAAAGUGGCCCUUGGCAGCUCUGCCAGUGAUGUUGGUCAAGGUCCU [#SwitchBubble 7 #StaticStem],976,696,912,393,776
GCAUGGAUCGCAGGAUAUAGAUCCGUGAGUGAAUUCUUGCCAGUGAGGAGUGAUGUUCCUCAUGGGCUAGAAGGGCGAUCCAUGC,140,80.8,89.4,85.9,83.5
UUUUUAUGCAGUGAUGUUGCUAAUAUAACAGAGGAUAUGCAUUAAUGCAGAAGGCUGAAAUACUAUACUUUAAUAAAUUAAAUUU [JR_SSFMNA_Sub014],89.9,109,85.5,134,85
AAGGGCGGAACAACCUCGCCGGAUAGAGAUACCAGCCCAGCAAUGGGCCCUUGGCAGCUCACUGACCUCAGUGAUGUUGAGGUUC [Laar],243,220,248,188,232
GAUUUAGAGGCGGCCGCCACUAGUGAUGUUAGUGAUGUUUGAUACUGAAUAUAUCUGCGUUUAGAUAGGACCGGGCCAGAUGGUG [ddcmullin],261,159,193,215,197
AAAUUUUCAAGUGAUACCAGACAUUUUUAUUUCUUUAUUUAUGCUAAGUGAUGUUUAGCAGUCCCUUGGCAGCACUAUUUAAUUA [JR_Nu_SSTheophyB_Sub030],127,174,141,231,144
GAAAGAAAGUAUGAUACCAGACACCCGAGUGAUGUUCGGAGCAGAGUGAUGUUCUUUUAAGUCCCUUGGCAGCAUAAAAGAAAAG [whbob_SS_Theo_B_sa83],192,219,238,294,166
UGUCAUUGGUCGGCCGCCACUUCGUAUGAAGUGAUGUUUUGUAGAUUGUGUUGAAAGGUGUGGUGAAGGACCGGGACCGAUGACU [FiskerMod 23 - Jieux - Same State - Tryptophan B],898,623,1010,1050,769
GUGCGCGGUGCGGCCGCCACUCGGAUGCGAGUGAUGUUCGCGGGACGGACGCAAGUCCGUCAUUCGAGGACCGGGCAUGGCUGUA [#2 Same State - Tryptophan B Attempt #5 (HarryS)],336,274,247,252,169
CCGGCCCGGCCGGAUACCAGUGCGCCGCUGGGAACCGCGGGCCCAGAGUGAUGUUCGGGACACCCUUGGCAGCCGCCUGGGUCGC [#2 Same State - Theophylline B Attempt #24 (HarryS)],398,140,247,217,240
AAAGGCAAAGCCCGAGUGAUGUUCGACGAUACCAGCCUCGAUAGAGGCCCUUGGCAGCGUAAAUGAUCAUGAAGCCAAGGAAUAA [whbob_Ex_Theo_A_th67],352,302,352,260,313
UGAUACCAGACGGCCGCCACUCCUGCAGUCAAAAGACUGCUAAAGGAAAUCGUCCAGUGAUGUUGGAGGACCGGGUCUGGUAUCU [TrypBX 16 #SwitchBubble #Palindromic #StaticStem],1120,719,1380,991,403
AUAGGAUUGCGAGGAUAUCCUUCCCACGUCGAAGUACCGUGCUUGAUGGAGUGAUGUUCGAUCAGAGGAGAAGGUGCGGUUUUGU [Same State FMN B GF24],292,593,942,732,944
AGUAAUAUCACGGCCGCCACUGAUUAUUGUUUUUAUAGUUAUAAAUCUUGCCAGUGAUGUUGGUUCAGGACCGGGUGAGUUAAUA [JR_SSTryptoB_Sub001],429,469,584,727,299
UAUGCUUGUGCUGAUACCAGUGUUAGUGAUGUUAGGACUGUCAGUAGGAUGCGUGCAUUUCACCCUUGGCAGCAGUAUCGCAGCA [theeternabot_exclusion_KL_Theo_B_48],447,295,351,426,387
GCGCGUCAUGUCAGCGGUGACUCUGUCGAUACCAGCGCCGCAAGGCGCCCUUGGCAGCGACGCGCUGGAGUGAUGUUCCAGCGUG [#2 Exclusion - Theophylline A Attempt #13 (HarryS)],157,142,160,150,145
GCAGGCGUAAAAGGAUAUCAGGCUCUCUAGACACGAGUGAUGUUUGUGUAGGUAACGUAAUAGGCAUGAGAAGGUUUCACUUAAA [theeternabot_sameState_KL_FMN_B_49],608,430,547,524,416
